Laboratory results taken from paper PMC5931534.

What was measured:
[1] = biological target: calmodulin (CaM) (UniProt P62157)
[2] = biological target: calmodulin (CaM) (UniProt P62157); experiment: ELISA; 96-well MaxiSorp plates coated with 1 ug CaM at 4 C overnight, blocked with 4% BSA; 80 ng DAPK2 for 15 min at 30 C; detected with anti-DAPK2 antibody, HRP secondary and ABTS

Sequence of FLAG-DAPK2 S289D (Q9UIK4 whole entry, stated change not applied): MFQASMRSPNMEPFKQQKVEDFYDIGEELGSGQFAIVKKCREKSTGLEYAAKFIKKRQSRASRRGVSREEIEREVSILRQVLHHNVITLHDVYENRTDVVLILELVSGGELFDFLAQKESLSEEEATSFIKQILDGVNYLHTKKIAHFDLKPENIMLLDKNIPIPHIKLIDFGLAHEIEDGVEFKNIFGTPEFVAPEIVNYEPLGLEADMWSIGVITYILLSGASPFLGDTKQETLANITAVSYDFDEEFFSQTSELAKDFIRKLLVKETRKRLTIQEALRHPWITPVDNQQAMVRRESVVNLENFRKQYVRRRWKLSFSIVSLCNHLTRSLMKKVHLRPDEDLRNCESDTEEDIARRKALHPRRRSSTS
Sequence of FLAG-DAPK2 S289A (Q9UIK4 whole entry, stated change not applied): as above

| fold induction of the catalytic activity (MLC phosphorylation, in vitro kinase assay) upon addition of Ca2+/CaM against EGTA [1] | fold lower ELISA signal than DAPK2 WT [2] | Substance |
| --- | --- | --- |
| 1.6 fold | – | FLAG-DAPK2 S289D (from UniProt Q9UIK4-1 1-370) (enzyme) |
| – | 5 fold | DAPK2 S289D (ELISA CaM binding assay) (from UniProt Q9UIK4-1 1-370) (enzyme) |
| 5.4 fold | – | FLAG-DAPK2 S289A (from UniProt Q9UIK4-1 1-370) (enzyme) |
